One variant from IntAct's records for PubMed 18761085 can be followed below.

The chains are these.
B1: Ras GTPase-activating protein 1 (Homo sapiens), P20936 (parent)
chain: MMAAEAGSEEGGPVTAGAGGGGAAAGSSAYPAVCRVKIPAALPVAAAPYPGLVETGVAGTLGGGAALGSEFLGAGSVAGALGGAGLTGGGTAAGVAGAAAGVAGAAVAGPSGDMALTKLPTSLLAETLGPGGGFPPLPPPPYLPPLGAGLGTVDEGDSLDGPEYEEEEVAIPLTAPPTNQWYHGKLDRTIAEERLRQAGKSGSYLIRESDRRPGSFVLSFLSQMNVVNHFRIIAMCGDYYIGGRRFSSLSDLIGYYSHVSCLLKGEKLLYPVAPPEPVEDRRRVRAILPYTKVPDTDEISFLKGDMFIVHNELEDGWMWVTNLRTDEQGLIVEDLVEEVGREEDPHEGKIWFHGKISKQEAYNLLMTVGQVCSFLVRPSDNTPGDYSLYFRTNENIQRFKICPTPNNQFMMGGRYYNSIGDIIDHYRKEQIVEGYYLKEPVPMQDQEQVLNDTVDGKEIYNTIRRKTKDAFYKNIVKKGYLLKKGKGKRWKNLYFILEGSDAQLIYFESEKRATKPKGLIDLSVCSVYVVHDSLFGRPNCFQIVVQHFSEEHYIFYFAGETPEQAEDWMKGLQAFCNLRKSSPGTSNKRLRQVSSLVLHIEEAHKLPVKHFTNPYCNIYLNSVQVAKTHAREGQNPVWSEEFVFDDLPPDINRFEITLSNKTKKSKDPDILFMRCQLSRLQKGHATDEWFLLSSHIPLKGIEPGSLRVRARYSMEKIMPEEEYSEFKELILQKELHVVYALSHVCGQDRTLLASILLRIFLHEKLESLLLCTLNDREISMEDEATTLFRATTLASTLMEQYMKATATQFVHHALKDSILKIMESKQSCELSPSKLEKNEDVNTNLTHLLNILSELVEKIFMASEILPPTLRYIYGCLQKSVQHKWPTNTTMRTRVVSGFVFLRLICPAILNPRMFNIISDSPSPIAARTLILVAKSVQNLANLVEFGAKEPYMEGVNPFIKSNKHRMIMFLDELGNVPELPDTTEHSRTDLSRDLAALHEICVAHSDELRTLSNERGAQQHVLKKLLAITELLQQKQNQYTKTNDVR
partner: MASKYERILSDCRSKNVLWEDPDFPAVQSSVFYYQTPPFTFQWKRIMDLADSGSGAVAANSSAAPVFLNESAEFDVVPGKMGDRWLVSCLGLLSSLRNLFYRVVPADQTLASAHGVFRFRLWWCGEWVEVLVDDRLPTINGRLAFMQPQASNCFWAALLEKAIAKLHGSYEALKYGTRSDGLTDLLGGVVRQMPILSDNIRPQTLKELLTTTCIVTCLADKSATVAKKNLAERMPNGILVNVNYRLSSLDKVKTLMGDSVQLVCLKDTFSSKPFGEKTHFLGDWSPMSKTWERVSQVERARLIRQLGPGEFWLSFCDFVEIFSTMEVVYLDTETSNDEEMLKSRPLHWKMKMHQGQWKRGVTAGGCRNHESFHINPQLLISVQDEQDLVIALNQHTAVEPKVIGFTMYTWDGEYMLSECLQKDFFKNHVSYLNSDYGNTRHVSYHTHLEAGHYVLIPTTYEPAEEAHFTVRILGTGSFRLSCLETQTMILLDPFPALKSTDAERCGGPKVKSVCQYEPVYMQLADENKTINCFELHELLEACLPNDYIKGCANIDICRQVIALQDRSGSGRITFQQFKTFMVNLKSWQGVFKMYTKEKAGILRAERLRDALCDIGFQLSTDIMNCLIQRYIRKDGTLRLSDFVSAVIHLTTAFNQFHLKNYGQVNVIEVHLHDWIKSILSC

In this experiment the parent is B1. The following applies: with canc_drome CalpC.
Take W317K: the “effect of a mutation on the interaction” value is “disrupting interaction”.
